This assay has as its target T1, GST-USP29 (UniProt Q9HBJ7 1-922).
T1 construct: USP29 cloned into pGEX-4T-1; also called purified GST-USP29; GST-USP29 WT; source: E. coli BL21, purified (Pierce Glutathione Agarose)
T1 sequence (looked up): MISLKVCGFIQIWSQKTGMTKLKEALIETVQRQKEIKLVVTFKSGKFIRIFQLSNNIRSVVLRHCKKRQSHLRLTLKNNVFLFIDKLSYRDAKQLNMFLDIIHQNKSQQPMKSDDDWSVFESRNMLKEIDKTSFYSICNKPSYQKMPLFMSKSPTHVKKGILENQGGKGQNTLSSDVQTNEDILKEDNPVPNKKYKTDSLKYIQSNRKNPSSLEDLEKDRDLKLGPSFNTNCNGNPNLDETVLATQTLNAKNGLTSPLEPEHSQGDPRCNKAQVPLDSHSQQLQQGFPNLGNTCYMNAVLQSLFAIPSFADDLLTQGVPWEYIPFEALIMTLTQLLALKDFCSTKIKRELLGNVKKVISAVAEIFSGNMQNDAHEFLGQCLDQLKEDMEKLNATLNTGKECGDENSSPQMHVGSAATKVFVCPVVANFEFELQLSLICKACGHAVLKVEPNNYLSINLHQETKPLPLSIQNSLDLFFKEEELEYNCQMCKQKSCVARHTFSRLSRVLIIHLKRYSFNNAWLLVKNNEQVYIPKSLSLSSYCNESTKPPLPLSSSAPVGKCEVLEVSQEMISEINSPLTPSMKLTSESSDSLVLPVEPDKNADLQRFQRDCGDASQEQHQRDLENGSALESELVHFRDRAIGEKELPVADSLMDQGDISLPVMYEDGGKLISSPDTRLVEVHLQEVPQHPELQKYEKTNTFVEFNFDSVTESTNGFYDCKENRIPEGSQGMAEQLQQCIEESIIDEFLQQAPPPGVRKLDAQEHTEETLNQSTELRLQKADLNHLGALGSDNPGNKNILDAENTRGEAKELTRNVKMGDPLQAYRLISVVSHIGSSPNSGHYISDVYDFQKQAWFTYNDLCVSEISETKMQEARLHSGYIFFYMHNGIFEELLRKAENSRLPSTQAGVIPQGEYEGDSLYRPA
In words: pull-down; GST or GST-USP29 bound to Pierce Glutathione Agarose incubated with the purified His-tagged protein overnight at 4 °C; beads washed four times with PBS; western blot. Particulars: both partners purified. (A western blot detects proteins with antibodies after separation by electrophoresis.)

B1: His-TWIST1 (natural protein, UniProt Q15672 1-202, looked up)
chain: MMQDVSSSPVSPADDSLSNSEEEPDRQQPPSGKRGGRKRRSSRRSAGGGAGPGGAAGGGVGGGDEPGSPAQGKRGKKSAGCGGGGGAGGGGGSSSGGGSPQSYEELQTQRVMANVRERQRTQSLNEAFAALRKIIPTLPSDKLSKIQTLKLAARYIDFLYQVLQSDELDSKMASCSYVAHERLSYAFSVWRMEGAWSMSASH
notes: TWIST1 cloned into PET28A; also called PET28A-TWIST1; source: E. coli BL21, purified
Consider B1, for which the binding result is reported as “binds”.

The record behind these values is publication PMC10104637, “Phosphorylation of USP29 by CDK1 Governs TWIST1 Stability and Oncogenic Functions” (Advanced Science, 2023).
